# Results as given in the DeepSol protein solubility set.
# Experiment: soluble on expression in E. coli; label from the status in PepcDB or PDB records
row,Sequence,soluble on expression in E. coli
1,MGSDKIHHHHHHMSDSVSIAKYMHRDCLHCPAPLVGTSFKPCHFADIVDNGLQDGFFEVHAENYMGKGGPPHRALSALRETYPVSVHGVCLSIGGPSPLDAHHLARFRDVVARYEPVLVSEHLAWSSHGGAFYNDLLPLPYTKATLDRVCAHVDQIQEAIARPLLLENPSTYVGFASSTMSETEFIAAVAGRTGCGLLLDINNAFVSATNHGCSAADYLADFPLEQVGEIHLAGHSEQRDDEDEPLLIDSHDRPIAGPVWALYASVIARTGPVPTLVEWDSQLPDWLVLRAQALEARRIMDAAVASPVEVADHAL,not soluble
2,MGSDKIHHHHHHMGGCCSQEGCNTRPRYLPLKCYPGLPMRATRRLDLSAVERALREVQGRFAELSQHFTEPRDPFTDEVLLNVVEGYALIDDYVARGIDLFDLQQLNLMLEINATVLCGSDPARRLEFAPHLAATEAHFFNNVEGGIKDLYNWYCAYRSDSIWKRAAGVYVRILSKPQLFIEGNNRTGSLIVSYLLMRAGLPPFVLSLDNAEGYFNPSSVIRNSAKHGVKALYELPKIKKKYAAFLEAKAPEPGKFFLNGTPVPACEGSR,not soluble
3,RTFRHYDAYRSQSGTTGTDAARFILSQSGINDVGVQKISGDLTDNYNGQTKILSLSEATADSTSVAAIGVAAHECGHAVQDHVNYWPMRLRTALVP,not soluble
4,MGSDKIHHHHHHMYELYFNWKFIWKKVGLASLTTNSTTYHSEPAYRVNLLAISSKEADFFFKMRDTLTSVMTEKLEPRYFRKGAEEGKRYTVDEARFSFRNGMCYVNQKRVRKDGSITETEQSDNRCIYDMLTILAQARSFDPKEYTIGQRIQFPMATGRRVEEQTLIYRGIKKITAENDTTYRCLIFSLVEYNKKGKEKEVITFYVTDDRNHLPVRLDMHLNFGSAKAFLKSVSGYRHPQTSIVTK,not soluble
5,MGSDKIHHHHHHGADFVKGDRTFAADAELGATVTTGNTETTSLKGRLDMKHELGNWENQYLLEALYKEDSGEETGKRYYGLVQGNYKFSDVNYMFANANHEIDPFTGFDSKSTISAGYGHKFVDTEKTTFAVEVGPGFQYKRLDDESAAEAGYDTEESWVAHGVMNFETEITDNSKFKQLFVADYGESLEGRSETSITANIVGALAMKFAVIVRYNSEPLDNKKSTDTETNMTLLYSF,not soluble
6,AIAVSRLEHPAGGYKKVFESCEELAEPIPAHVSGKIPAWLSGSLLRMGPGLFEIGDEPFNHLFDGQALIHKFDLKDGRVTYHRKFIRTDAYVRAMTEKRVVITELGTAAYPDPCKNIFSRFFTYFQGTEVTDNCSVNIYPIGEDFYACTETNFITKVNPDTLETIKKVDLCNYLSVNGLTAHPHIEADGTVYNIGNCFGKNMSLAYNIVKIPPLQEEKSDPLAMSKVLVQFPSSERFKPSYVHSFGMTENHFVFVETPVKINLLKFLTSWSIRGSNYMDCFESNDRMGTWFHLAAKNPGKYINNPSQ,soluble
7,MGSDKIHHHHHHMTRYRFFHTADIHLGKTYRTSTGEAERYEDFFRMLGSIVSDAIAARVDFVLIAGDLFHTGQILPRTFARTIETLQPLKNAGIPCIAVEGNHDWIHRRDSISWMEALSQMGYIHLLRPSRTETGGYRFSPFDYEQGMGGHIEVNGVNIYGLGYIGTQAGAHVARICEAITTTNNILLFHVGVWTYSPVEIGNMKPEEALPLADVFDYVALGHGHKPYIIATPEGRAYAFNPGSPECVNFGEEKYDKGYYLVTVNDGVYTHEFRPTNPRPMLVTTIDLDGAGDAETALTRFRNVVAAKIASFSDDRQPLLEIKLTGRVGFHPFELGRERLRLALEEICNPLHVEIKNHLSLVTAGGGAESEKKSLAEIEREVLRELISAKSEYKGREDELVRLSLAIRDQVLKGETDGEELLGLLMREPA,not soluble
8,LTAEEIIQYISDAKKSTPIKVYLNGNFEGITYPESFKVFGSEQSKVIFCEADDWKPFYEAYGSQFEDIEIEMDRRNSAIPLKDLTNTN,soluble
9,LADTSPMDKKGRKAEDALVVNVRANLYWWEFEYPDYGIITSQELIVPTDQRVYFNLKASDVKHSFWIPSVGGKLDTNTDNENKFFLTFDSKRSKEAGDMFFGKCAELCGPSHALMDFKVKTMSAKEFQGWTKEMKNYKSTAESDLAKQGEELFKEKNCLSCHAVEPNDKRAEAARTAPNLATFGERTKVAGVKEANKENVKAWLKDPDSIKPGNKMTGTYPKLSDSETNALYEYLKGLKAE,not soluble
10,MNDVYAEAKLNKPDFHTAYTLKKDDGGAIALGEGSTGTVTEVTDPEAIATTVVEWTVTPAEALALVKKSKTEMFATVTYESVDGTRGDITITMKASIAMPSGVIKNDQKITEAWSPDKSYVKADVKEPVTVAVTDFKLDLFDVFEGRKVVVSDVTEANFPSFTKDKLTAKFIFSGAKDVTIGTDKYTFTVTANGTQLNASKNSATATKIATIDADGIITYNKADENAHALLNKSAYNVDPFTVGIEIVVTNECDEILPLTGNKFDVKFLRPINVVDLKSAELQDATTGTAKIDMSKLLGLTDWRGQAFAVAPIDFYTYYGVTGSAISIDKDQIMTTLNASEAAPKLLKDVAPNMSINYTCDLQKIGGDITYGDLVYANGKFTINAPFKLFIPVTVKYTFGEVTSTVTLTITPTHQ,not soluble
11,MAHHHHHHMESKICDPIGLDKNKFRKVEEENEENSKIVENGQMTYNDDLEMFTTIQLNQEIDIRKNPFPLHMINQKNDIPLCAQEFSKLTDPLYIKKICLEKVHDWSRCNEDDVCVNQILSGLTNQLFEVSIKEDTAIEYRITRRHVLFRIYGKDVDALYNPLSEFEVYKTMSKYRIAPLLLNTFDGGRIEEWLYGDPLSIDDLKNKSILVGIANVLGKFHTLSRKRHLPEHWDKTPCVFKMMDRWRLAVSNYKNLDKVTLDINKYIQESHKFLKFIKIYTQIENIANDIVFCHNDLQENNIMNTNKCLRLIDFEYSGYNFLSADIANFFIETTIDYSYNAYPFFIINKKNYISYESRILFVTTYLSKYLDDSTAASDQDIIDQFLEAIEVQALGLHLIWAFWSIIRGYQTKSYNEFDFFLYAKERLKMYDEQKQYLMSKNIIKDYDD,soluble
12,MGSDKIHHHHHHMHQDTVRGKAFAMPLISPAYPAGPYRFRNREYLIITYRTDPQKLRDLVPEPLQVCEPMVKFEFIRMPDSTGFGDYTEGGQVIPVSFYGRRGSYTHCMFLDDHPPIAGGRELWGFPKKLASPTLRTETDTLVGTLDYGPVRVATGTMGYKHRAADLASVRASLAEPNFLLKIIPHVDGTPRICELVEYHLEDVHLRGAWTGPAALNLWSHALAPVAELPVLEVVSAVHLVADLTLALGKVVHDYLAKA,not soluble
13,KNSFNIKLKEDSEMLEEVVVTGYGGKQLRTKVTNSIAKVKDEALKVGLFSNPAQALSGAVAGLKVTQASGSPGAAPKVTLRGGTNFDGSGDPLVIVDGQLRDGMQDINPEDIESMEVLKDAGATAIYGARASNGVILITTKTGKEGR,not soluble
14,MRVFKTILLVVLMTLSQAMVAQTSPIPMLERAANQIISILKENKARLKSNPEIIYKAVEENLLPNVDVAGMSRSVLGRQAWSKATEAERVEFSKAFTRLVIRTYSSPLAQYSDETVQFLPLRGSLNSRFIRVNSVIVRSAGQNIPLSYSLVSKNGKWKIYDISVEGVSLLQSFRSQFAQALQHSSISQVIKEMQQKQIKKASLEHHHHHH,not soluble
15,MSLLLENCKLETGFSTVNQRIVATETASYDIRIENEVCTAVAPQLRPLENETVIDVNQQLVLPALREMHIHIDKTYFGGPWKACRPLTKGILTRIEEETWLLPEQLPTSLERACQVIEQYIQQGHYHIRSHCNVDPSIGTKHIEITKEAFSRYEQYITHEIVAFPQHGLLRSQVEPLMREALRMGATHVGGVDPALVDRHVDHSIAKIFELATTFNKKIDVHLHARDTLGLYEFNKFVDYTEQAKMFGKVTLSHALALGSLEEAAIRDIAQKFIETGIDLTSTVPIGMPTMPIPTLVEQGVKISVAHDSLTDHWSPFGSGNTIEKLNTAAQRFKISDEYRLNRLWGLASNFVTPLDPNGQQVWPNVGDSADFLLFNAESTAHVIARQQPIQQLILKGQLVEAVQKGEKEEGHHHHHH,soluble
